Earlier results on 1 substance are cited in article PMC2656815.

The target in the data set is CRF1 receptor N-domain (Homo sapiens) (UniProt P34998).
UniProt P34998, sequence (P34998 24-119): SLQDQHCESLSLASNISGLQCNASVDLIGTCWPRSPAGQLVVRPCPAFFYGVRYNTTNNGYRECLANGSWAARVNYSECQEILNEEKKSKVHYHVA

Regarding CRF (from UniProt P06850), the Kd was 0.05 µM.
